Data as given in PMC10746525, “Interaction between the mitochondrial adaptor MIRO and the motor adaptor TRAK” (The Journal of Biological Chemistry, 2023).

B2: MIRO1_(1-591) (domain or fragment, human, UniProt Q8IXI2 1-591, looked up)
chain: MKKDVRILLVGEPRVGKTSLIMSLVSEEFPEEVPPRAEEITIPADVTPERVPTHIVDYSEAEQSDEQLHQEISQANVICIVYAVNNKHSIDKVTSRWIPLINERTDKDSRLPLILVGNKSDLVEYSSMETILPIMNQYTEIETCVECSAKNLKNISELFYYAQKAVLHPTGPLYCPEEKEMKPACIKALTRIFKISDQDNDGTLNDAELNFFQRICFNTPLAPQALEDVKNVVRKHISDGVADSGLTLKGFLFLHTLFIQRGRHETTWTVLRRFGYDDDLDLTPEYLFPLLKIPPDCTTELNHHAYLFLQSTFDKHDLDRDCALSPDELKDLFKVFPYIPWGPDVNNTVCTNERGWITYQGFLSQWTLTTYLDVQRCLEYLGYLGYSILTEQESQASAVTVTRDKKIDLQKKQTQRNVFRCNVIGVKNCGKSGVLQALLGRNLMRQKKIREDHKSYYAINTVYVYGQEKYLLLHDISESEFLTEAEIICDVVCLVYDVSNPKSFEYCARIFKQHFMDSRIPCLIVAAKSDLHEVKQEYSISPTDFCRKHKMPPPQAFTCNTADAPSKDIFVKLTTMAMYPHVTQADLKSST
notes: Cloned into pRSFDuet-1; also called mitochondrial Rho GTPase 1, near full-length construct lacking the C-terminal transmembrane helix; source: E. coli ArcticExpress(DE3), purified (Ni-NTA, Strep-Tactin)
B3: MBP-TRAK1_(342-431) (domain or fragment, human, UniProt Q9UPV9 342-431, looked up)
chain: EAQEELKNLRNKTMPNTTSRRYHSLGLFPMDSLAAEIEGTMRKELQLEEAESPDITHQKRVFETVRNINQVVKQRSLTPSPMNIPGSNQS
notes: GCN4 of m5 replaced with MBP; Cloned into pMAL-c6T; source: E. coli ArcticExpress(DE3), purified (amylose, Strep-Tactin); not shown: MBP, N-terminal, kept
B6: MIRO1_(177-591) (domain or fragment, human, UniProt Q8IXI2 177-591, looked up)
chain: EEKEMKPACIKALTRIFKISDQDNDGTLNDAELNFFQRICFNTPLAPQALEDVKNVVRKHISDGVADSGLTLKGFLFLHTLFIQRGRHETTWTVLRRFGYDDDLDLTPEYLFPLLKIPPDCTTELNHHAYLFLQSTFDKHDLDRDCALSPDELKDLFKVFPYIPWGPDVNNTVCTNERGWITYQGFLSQWTLTTYLDVQRCLEYLGYLGYSILTEQESQASAVTVTRDKKIDLQKKQTQRNVFRCNVIGVKNCGKSGVLQALLGRNLMRQKKIREDHKSYYAINTVYVYGQEKYLLLHDISESEFLTEAEIICDVVCLVYDVSNPKSFEYCARIFKQHFMDSRIPCLIVAAKSDLHEVKQEYSISPTDFCRKHKMPPPQAFTCNTADAPSKDIFVKLTTMAMYPHVTQADLKSST
notes: Cloned into pETDuet-1; As purified it held 37.0% GDP and 63.0% GTP; samples exchanged with GDP or GTP were also used; also called MIRO1 EF-hands and cGTPase; source: E. coli ArcticExpress(DE3), purified (Ni-NTA, SourceQ flowthrough)

Columns and labels:
MIRO1_(177-591) [1] = molecular target: B6; experiment: ITC; VP-ITC, 25 °C; ITC buffer (20 mM Hepes pH 7.5, 400 mM NaCl, 1 mM MgCl2, 5% w/v sucrose, 0.1 μM GTP) with 5 mM EGTA; the binder of each row in the syringe; conditions: both partners purified
[2] = molecular target: the molecule itself; experiment: mass photometry; Refeyn TwoMP, 125-150 nM protein, 100 mM NaCl, 50 μM MgCl2, 50 μM GTP with 1 mM EGTA or 100 μM CaCl2
MIRO1_(177-591) [3] = molecular target: B6; experiment: ITC; VP-ITC, 25 °C; ITC buffer (20 mM Hepes pH 7.5, 400 mM NaCl, 1 mM MgCl2, 5% w/v sucrose, 0.1 μM GTP) with 50 μM CaCl2; MIRO1_(177-591) in the syringe, TRAK1 construct in the cell; conditions: both partners purified
MIRO1_(177-591) E328A = molecular target: T1, MIRO1_(177-591) E328A (human, UniProt Q8IXI2 177-591, E328A); experiment: ITC; VP-ITC, 25 °C; ITC buffer (20 mM Hepes pH 7.5, 400 mM NaCl, 1 mM MgCl2, 5% w/v sucrose, 0.1 μM GTP) with 5 mM EGTA; the binder of each row in the syringe; conditions: both partners purified
T1 construct: source: E. coli ArcticExpress(DE3), purified (Ni-NTA, SourceQ flowthrough)

MIRO1_(177-591) E208A = molecular target: T2, MIRO1_(177-591) E208A (human, UniProt Q8IXI2 177-591, E208A); experiment: as above; conditions: both partners purified
T2 construct: source: E. coli ArcticExpress(DE3), purified (Ni-NTA, SourceQ flowthrough)

MBP-TRAK1_(342-431) [4] = molecular target: B3; experiment: ITC; VP-ITC, 25 °C; ITC buffer (20 mM Hepes pH 7.5, 400 mM NaCl, 1 mM MgCl2, 5% w/v sucrose, 0.1 μM GTP) with 50 μM CaCl2; MIRO1_(177-591) in the syringe, TRAK1 construct in the cell; conditions: both partners purified
MBP-TRAK1_(342-431) [5] = molecular target: B3; experiment: ITC; VP-ITC, 25 °C; ITC buffer (20 mM Hepes pH 7.5, 400 mM NaCl, 1 mM MgCl2, 5% w/v sucrose, 0.1 μM GTP) with 5 mM EGTA; the binder of each row in the syringe; conditions: both partners purified
MIRO1_(1-591) = molecular target: B2; experiment: co-sedimentation; 5-30% glycerol gradient, proteins mixed at 4 μM each in 20 mM Hepes pH 7.5, 500 mM NaCl, 1 mM MgCl2, 1 mM CaCl2, 1 mM DTT, 0.1 μM GTP; 165,000g, 16 h, 4 °C; fractions on SDS-PAGE; conditions: both partners purified

B1: TRAK1_(394-434) (peptide, UniProt Q9UPV9 394-434, looked up)
peptide: PDITHQKRVFETVRNINQVVKQRSLTPSPMNIPGSNQSSAM
notes: Cloned into pMAL-c6T; also called TRAK1 peptide narrowly encompassing CR2; not shown: 6xHis-MBP, N-terminal, cleaved
MIRO1_(177-591) [1]
  binding result: binds

## B2
[2]
  binding result: binds

## B3
MIRO1_(177-591) [3]
  Kd: 2.76 µM
MIRO1_(177-591) E328A
  binding result: binds
MIRO1_(177-591) E208A
  binding result: binds
MIRO1_(177-591) [1]
  Kd: 8.77 µM

B4: MBP-TRAK1_(342-431) ^400KR^401 to AA (domain or fragment, human, UniProt Q9UPV9 342-431, looked up)
chain: EAQEELKNLRNKTMPNTTSRRYHSLGLFPMDSLAAEIEGTMRKELQLEEAESPDITHQAAVFETVRNINQVVKQRSLTPSPMNIPGSNQS
notes: source: E. coli ArcticExpress(DE3), purified (amylose, Strep-Tactin); not shown: MBP, N-terminal, kept
MIRO1_(177-591) [1]
  binding result: binds

B5: MBP-MIRO1_(1-180) (domain or fragment, human, UniProt Q8IXI2 1-180, looked up)
chain: MKKDVRILLVGEPRVGKTSLIMSLVSEEFPEEVPPRAEEITIPADVTPERVPTHIVDYSEAEQSDEQLHQEISQANVICIVYAVNNKHSIDKVTSRWIPLINERTDKDSRLPLILVGNKSDLVEYSSMETILPIMNQYTEIETCVECSAKNLKNISELFYYAQKAVLHPTGPLYCPEEKE
notes: human MIRO1, residues 1-180 (nGTPase); Cloned into pMAL-c6T; also called nGTPase of MIRO1 fused to MBP; source: E. coli ArcticExpress(DE3), purified (Strep-Tactin, MonoQ); not shown: MBP, N-terminal, kept
[2]
  binding result: binds

## B6
MBP-TRAK1_(342-431) [4]
  stoichiometry N: 1.11
MBP-TRAK1_(342-431) [5]
  stoichiometry N: 1.09

B7: TRAK1_(99-532) (domain or fragment, human, UniProt Q9UPV9 99-532, looked up)
chain: AERVGQMTKTYNDIDAVTRLLEEKERDLELAARIGQSLLKKNKTLTERNELLEEQVEHIREEVSQLRHELSMKDELLQFYTSAAEESEPESVCSTPLKRNESSSSVQNYFHLDSLQKKLKDLEEENVVLRSEASQLKTETITYEEKEQQLVNDCVKELRDANVQIASISEELAKKTEDAARQQEEITHLLSQIVDLQKKAKACAVENEELVQHLGAAKDAQRQLTAELRELEDKYAECMEMLHEAQEELKNLRNKTMPNTTSRRYHSLGLFPMDSLAAEIEGTMRKELQLEEAESPDITHQKRVFETVRNINQVVKQRSLTPSPMNIPGSNQSSAMNSLLSSCVSTPRSSFYGSDIGNVVLDNKTNSIILETEAADLGNDERSKKPGTPGTPGSHDLETALRRLSLRRENYLSERRFFEEEQERKLQELAEKGE
notes: Cloned into pRSFDuet-1; codon-optimised synthetic cDNA; source: E. coli ArcticExpress(DE3), purified (Strep-Tactin, Ni-NTA)
MIRO1_(1-591)
  binding result: binds
